Data from article PMC7863765.

How the values were obtained:
[1] = molecular target: phosphorylated SARS-CoV-2 N construct pN.1-211 (SARS-CoV-2) (UniProt P0DTC9); assay: SEC; observed qualitatively; Figure 6(C) and data not shown
[2] = molecular target: phosphorylated SARS-CoV-2 N construct pN.1-238 (SARS-CoV-2) (UniProt P0DTC9); assay: SEC-MALS

untagged full-length human 14-3-3γ (from UniProt P61981 1-247) (natural protein)
stoichiometry N (14-3-3γ chains per pN.1-211 chain (2:1)) [1]: 2 | stoichiometry N (14-3-3γ chains per pN.1-238 chain (2:1)) [2]: 2
